Experiment [1] has as its target anti-histidine-tag polyclonal antibody (Bethyl Laboratories, Inc., USA). Description: competitive immunochromatography, 0.37 µg/mL FBA added; concentration read from the ATG-8 standard curve.
Experiment [2] shares this target. Description: competitive immunochromatography, 10 µg/mL FBA added; calculated against added concentration, ATG-8 standard curve as reference.
The target is the same in experiment [3]. Description: competitive immunochromatography, 0.37 µg/mL FBA added; calculated against added concentration, ATG-8 standard curve as reference.
For experiment [4] the target is unchanged. Description: competitive immunochromatography, 3.3 µg/mL FBA added; concentration read from the ATG-8 standard curve.
Experiment [5] has the same target. Description: competitive immunochromatography, 1.1 µg/mL FBA added; calculated against added concentration, ATG-8 standard curve as reference.
Experiment [6] shares this target. Description: competitive immunochromatography, 3.3 µg/mL FBA added; calculated against added concentration, ATG-8 standard curve as reference.
For experiment [7] the target is unchanged. Description: competitive immunochromatography, 1.1 µg/mL FBA added; concentration read from the ATG-8 standard curve.
For experiment [8] the target is unchanged. Description: competitive immunochromatography, 30 µg/mL FBA added; concentration read from the ATG-8 standard curve.
Experiment [9] has the same target. Description: competitive immunochromatography, 30 µg/mL FBA added; calculated against added concentration, ATG-8 standard curve as reference.
The target is the same in experiment [10]. Description: competitive immunochromatography, 10 µg/mL FBA added; concentration read from the ATG-8 standard curve.

B1: fructose bisphosphate aldolase comprising histidine-tag (Cusabio, USA) (enzyme, UniProt P04075 2-364, looked up, species assumed)
Fructose-bisphosphate aldolase A: PYQYPALTPEQKKELSDIAHRIVAPGKGILAADESTGSIAKRLQSIGTENTEENRRFYRQLLLTADDRVNPCIGGVILFHETLYQKADDGRPFPQVIKSKGGVVGIKVDKGVVPLAGTNGETTTQGLDGLSERCAQYKKDGADFAKWRCVLKIGEHTPSALAIMENANVLARYASICQQNGIVPIVEPEILPDGDHDLKRCQYVTEKVLAAVYKALSDHHIYLEGTLLKPNMVTPGHACTQKFSHEEIAMATVTALRRTVPPAVTGITFLSGGQSEEEASINLNAINKCPLLKPWALTFSYGRALQASALKAWGGKKENLKAAQEEYVKRALANSLACQGKYTPSGQAGAAASESLFVSNHAY
modifications: His-tag
As for B1, the Calculated concentration in experiment [1] is 0.056 µg/mL; in experiment [4], 0.51 µg/mL; in experiment [7], 0.14 µg/mL; in experiment [8] it was 11.7 µg/mL; in experiment [10], 1.81 µg/mL. The Recovery in experiment [2] was 0.18; in [3] it was 0.15; in experiment [5], 0.13; in experiment [6], 0.15; in experiment [9], 0.39.

The values are drawn from US10788489.
